Laboratory results: patent US20160053277A1, “Compositions Having Dicamba Decarboxylase Activity and Methods of Use” (PIONEER HI-BRED INTERNATIONAL, INC., priority 2013, published 2016)

Assays:
[1] = 14C assay with IPTG-induced recombinant E. coli cells: 14CO2 captured from [14C]-carboxyl-labeled dicamba; settings: for decarboxylation activity of dicamba: among the 108 sequences tested, recombinant E. coli cells; for Enzymatic Detection level: dicamba decarboxylation activity of the protein of the given SEQ ID NO, High / Low / No; for Dicamba Decarboxylase Activity: induced recombinant E. coli cells, [14C]-carboxyl-labeled dicamba, 14CO2 capture
[2] = Saturation mutagenesis of SEQ ID NO:109: dicamba decarboxylation activity of point mutants (carbon dioxide released); settings: decarboxylation activity (carbon dioxide released) of point mutant compared with unmutated backbone protein; backbone SEQ ID NO: 109

Molecule | decarboxylation activity of dicamba [1] | Enzymatic Detection level [1] | Dicamba Decarboxylase Activity [1] | Fold Activity [2]
58 (protein, Mycobacterium colombiense) MARVIALEEHYATTEFLRGPGTWLASRPGIVEPAGDLGDGRIAAMDQAGVDLAVLSLAAPGVEQLDPDDAVRLARDCNDQLAAAVRRYPDRLAGFATVPTSAPDRAADELERAVRGLGFPGAVINGHSRGRYLDDPFFEPVLARAAELQAPIYLHPTIPPAGVIESSYAGFAEPVTFALATVGWGWHINTATHALRMILGGVFDRHPSLQMIIGHMGEATSFMLPRFDATLKPELTGLNHPVSSYLRENFHYTFANFNDHATYANLVAQVGIERVAFSADYPFGSMVDARAFLDGLPLSDDERAAISHRNAEKLLGL | showed decarboxylation activity of dicamba | High | High | 1.5
79 (protein, Pyrenophora teres) MATTTTPSTLIATLESHLTPTLAFTSPTTSPTQPALHLIPPTTLTKLRNLGPGRVKDMHMLGHSRQIISHIPVAAPPQICSRFNDAIHAATMTNTAKFSVLAVLPTDGMEAAKELARCVSKYRFVGGVIGLNRGLRINGEGWEELWGLAERLRIPIMFREMWPLAFEIVDYQHHLPYSALGPILTQLHTSHTSSPLPLVRLYLSSVFDHYPSLRLVLAHPGSLPSLVPRIESLINSIPATDKPKRSFLDVWQHNIYLTTADAQDMSSLRALLEQIPVDRVLYASNYPFEERGNELMNELRESEFLTNIEWERVAWVNAETLFNLKEAGTKEARQLTTIPSSRS | showed decarboxylation activity of dicamba | High | High | 0.9
81 (protein, listed as Verticillium dahliae) MAASTKPKVVDIHTHMYPPSYIDILTSRTAIPVVRTFPQAADPRLILLDAEQQALDAALQDPTAKPPGRPLTSHYASLDQKIHFMDTHSIDISVVSLANPWLDFIEPKEAAATARSVNDEFEAMCASQPGRLFFFAALPLTAPLPALLEAVRHVAELEHCRGVILGTSGLGSGLDDPELVPVLEAVAAAALTVFLHPHYGLPNDVWGPRASAEYGHVLPLALGFPMETTIAVARMYLAGVFDRVPALRMLLAHSGGTLPFLAGRIESCILHDGQLVAEGKVGAARRTIWDVLREQVYLDAVIYSEIGLKAAIAASGGADRLMFGTDHPFFPPLGTDEQAKKESRINAGGSRPMITGNAMINGHGGLCNHITQSDYQDVVL | showed decarboxylation activity of dicamba | High | High | 1.2
87 (protein, listed as Novosphingobium sp.) MASDIATAADLQTGGRQGYLRIATEEAFATRDQIDVYLRMVRDGTADRGMTSLWGFYAQSPSARATQIIERLLDLGEQRLADMDAAGIDKAVLALTSPGVQPLLDMEEARRIAGNANDRLAERCAAHPDRFIGMTAVAPQDPQWSAREILRGATQLGFKGVQINSHTQGRYLDEPFFDPIFRALGDVGQPLYIHPGTPPDSMIGPLLDAGLDGAIYGFGVETGMHLLRLITAGIFDRYPDLQIMVGHMGEALPYWLYRLDYMHQAGIRSQRYERMRPLKRTIAGYFRSNVLVTCSGMAWEPAIQFARQVMGEDRVMYAMDYPYQYEADEVRALDVMDLSPESKRKFFQTNAERWFDL | showed decarboxylation activity of dicamba | High | High | 1.4
88 (protein, listed as Starkeya novella) MARKIALEEHFTTPELAGKYVARPTQSDALFADIERRLADFDELRLEMMDRAEIDLMVLSVTTPGVQGVRDTGEAIRLARGANDFLAREVQKRPSRYAGFAHLAMQDAEAAATELERAVRELGFRGALINGQTNGHYLDEDQYAPFWERVQELDVPVYLHPGNMADSPAMFAHRPELGGPIWAWTAETAAHALRLVFGGTFTRFPGAKVILGHMGETLPFLLWRLDSRREFDLGEKLAPDALPSAIIKRNIAVTTSGVCDPAPLVAALQALSDDNVMFSVDYPYEDPQLASKFIETAPIGEETRAKVCHGNAERLLGL | showed decarboxylation activity of dicamba | High | High | 1.3
89 (protein, listed as Erwinia billingiae) MATNRRDFLKNATAVMAGSTVFAGSSHFASAAAVEPAAVQPPRRIIALEEHFMLPEFVGYLHETQQNLRNGLVDKVVTPLSDFGKGRLEIMDKNGVDFAVLSLSGPGVQAEPDRVKAVRLARYANDKLATEMQKNPRRYGGFAHLAMQDPLAAANELERCVKQLHMQGGMINGETDGLYLDDRRYDVFWERVEALNVPIYIHPGNPPDYPHMFAGHPEMWGPVWSWAVETCSHALRLIFSGTFDRYPGARVILGHMGETLPIQLWRLDSRYQIANQTFAIKHPPSWYAKKNITITTSGVCNDAALRCALDSMGSENVMFSIDYPFESTEIAVNWLKTANITEQERNAVAWGNATSILRLGA | showed decarboxylation activity of dicamba | High | High | 3.1
92 (protein, listed as Chitinophaga pinensis) MARIVTLEEHVSFPEMTALLPEEILKNRKQSGAALQMQEKLADITGERLTSMKAAGISMQVLSVENTDVYLLPDSLAPAFAAKYNDLLADKISSHSDAFAAFAMLPMTVPEAAADELERAVKTHGFCGAMIKGLINGVFLDAPKFAPVFACAEKLGVPLYIHPGIPPKEVIDAYYSNVGDTKGPNEAIACYGWGWHSETAIHILRLLAAGIFDKYPQLNIIIGHMGEMLPMMWERSNRVFQPGNNGKNQRTLIETFRKQLYITTSGIFTQPPLQIAIDTIGIDNILFSIDYPFSSNQMGIDFLTKAALPAEQLAKMAHGNADRILKF | showed decarboxylation activity of dicamba | High | Yes | 1.7
4 (protein, listed as Lactobacillus buchneri) MAKVITLEEHFSSQKLGQKMAEVLPKRPIGNVSPKMQDYMQRSLPPEAELEDVTGSRIQWMDQHQISMQILSYGNQNPQNSDPKFAVELTKLANDELAKAVAKAPDRFRAFASLPVSHPTDAAAELKRGVEELGFKGAMLVRPTSQAHPFFDDPFYLPIFEAAANLNVPVYLHPSFPDSQIIDYYYSNGPWDDKVSGILGTAGYGWHTDVGIQTVRLLLSGVFEKYPNLKLISGHWGEFASFALERMDQVMYPETNLSEPISKIYRDHVYVTPSGILTEPQLKFVKDEVGIEHLLYSIDYPYIKPENSGSFIESSPLTDEEKELFAHGNAEKLLQL | showed decarboxylation activity of dicamba | High | High | 1
108 (protein, listed as Staphylococcus aureus) MAKSITFEEHYVIEDIQKETMNAISADPKGVPMKVMLEGLEKKTGFTNADELSHHDERIQFMNNQDVQIQVLSYGNGSPSNLVGQKAIELCQKANDQLANYIAQYPNRFVGFATLPINEPEAAAREFERCINDLGFKGALIMGRAQDGFLDQDKYDIIFKTAENLDVPIYLHPAPVNSDIYQSYYKGNYPEVTAATFACFGYGWHIDVGIHAIHLVLSGIFDRYPKLNMIIGHWGEFIPFFLERMDEALFAEHLNHSVSYYFKNSFYITPSGMLTKPQFDLVKKEVGIDRILYAADYPYIEPEKLGVFLDELGLTDEEKEKISYTNGAKLLGLSSNN | showed decarboxylation activity of dicamba | High | High | 1.6
5 (protein, listed as Staphylococcus aureus) MAQNNMEANQMKSITFEEHYVIEDIQKETMNAISADPKGVPMKVMLEGLEKKTGFTNADELSHHDERIQFMNNQDVQIQVLSYGNGSPSNLVGQKAIELCQKANDQLANYIAQYPNRFVGFATLPINEPEAAAREFERCINDLGFKGALIMGRAQDGFLDQDKYDIIFKTAENLGVPIYLHPAPVNSDIYQSYYKGNYPEVTAATFACFGYGWHIDVGIHAIHLVLSGIFDRYPKLNMIIGHWGEFIPFFLERMDEALFAEHLNHPVSYYFKNNFYITPSGMLTKPQFDLVKKEAGIDRILYAADYPYIEPEKLGVFLDELGLTDEEKEKISYTNGAKLLGLSSNN | showed decarboxylation activity of dicamba | High | High | 0.8
16 (protein, listed as Staphylococcus aureus) MAQNNMEANQMKSITFEEHYVIEDIQKETMNAISADPKGVPMKVMLEGLEKKTGFTNADELSHHDERIQFMNNQDVQIQVLSYGNGSPSNLVGQKAIELCQKANDQLANYIAQYPNRFVGFATLPINEPETAAREFERCINDLGFKGALIMGRAQDGFLDQDKYDIIFKTAENLGVPIYLHPAPVNSDIYQSYYKGNYPEVTAATFACFGYGWHIDVGIHAIHLVLSGIFDRYPKLNMIIGHWGEFIPFFLERMDEALFAEHLNHPVSYYFKNNFYITPSGMLTKPQFDLVKKEAGIDRILYAADYPYIEPEKLGVFLDELGLTDEEKEKISYTNGAKLLGLSSNN | showed decarboxylation activity of dicamba | High | High | 1.1
19 (protein, listed as Talaromyces marneffei) MATPIITLEEHYISSAIRDASETDHYAVFPSQIISKLNTLSTERLQDLDNGHVSLQVISHGPGAQPPYLCQAANDELASAISANPTRFAGFALLPIAEPQLAVQELERCITQHKFVGALIDNHTNGQFYDDQKFWPVFEKAQELDAPIYVHPSYPDEESGVAAHYRGNYDDRIAAALGAYGWGWHSDTALSILRLFAAGLFDTYPNIKIIIGHMGEMLPFQLERVIGIASRFGRSRGLREVWTQNIWVTTSGMFALAPLACLLQTMPIERVLYSVDYPFSANEKGFAFLEEIKKSGLIKEGEDWERFLYKNAQELLKVNV | showed decarboxylation activity of dicamba | High | High | 1.6
